This is an account of results in article PMC4510650, “TD-60 links RalA GTPase function to the CPC in mitosis” (Nature Communications, 2015).

The experiment addresses T1, human TD-60 with an amino-terminal streptavidin-binding protein (SBP) tag (human, UniProt Q9P258 1-522).
T1 construct: TD-60 (RCC2), human; cDNA codon optimized and made synthetically; The far-western sentence says only 'purified TD-60'; The GEF assay names it 'SBP-tagged recombinant TD-60'; far-western methods are in the Supplementary Methods; also called SBP-TD-60; RCC2; source: Sf9 cells (baculovirus, pFastBacI), purified
The experiment in a line: far-Western; purified RalA or purified Ran tested on purified TD-60; details only in the Supplementary Methods. To be noted: both partners purified.

T1 sequence (Q9P258 whole entry): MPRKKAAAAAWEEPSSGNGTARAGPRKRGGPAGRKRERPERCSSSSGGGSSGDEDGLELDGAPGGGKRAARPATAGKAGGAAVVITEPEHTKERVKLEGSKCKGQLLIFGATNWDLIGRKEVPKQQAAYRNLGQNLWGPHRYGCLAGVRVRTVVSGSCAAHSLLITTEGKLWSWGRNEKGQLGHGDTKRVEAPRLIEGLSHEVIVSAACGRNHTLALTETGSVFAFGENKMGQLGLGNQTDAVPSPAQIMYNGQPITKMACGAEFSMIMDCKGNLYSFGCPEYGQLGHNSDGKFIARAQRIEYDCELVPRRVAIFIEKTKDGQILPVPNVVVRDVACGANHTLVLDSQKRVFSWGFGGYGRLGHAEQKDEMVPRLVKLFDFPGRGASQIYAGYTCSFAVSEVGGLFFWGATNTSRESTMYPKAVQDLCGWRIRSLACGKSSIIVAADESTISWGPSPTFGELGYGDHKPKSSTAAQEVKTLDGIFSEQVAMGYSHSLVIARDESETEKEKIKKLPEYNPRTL

B1: purified human RalA (cloned into pFAT2) (natural protein, UniProt P11233 1-206, looked up)
chain: MAANKPKGQNSLALHKVIMVGSGGVGKSALTLQFMYDEFVEDYEPTKADSYRKKVVLDGEEVQIDILDTAGQEDYAAIRDNYFRSGEGFLCVFSITEMESFAATADFREQILRVKEDENVPFLLVGNKSDLEDKRQVSVEEAKNRAEQWNVNYVETSAKTRANVDKVFFDLMREIRARKMEDSKEKNGKKKRKSLAKRIRERCCIL
notes: RalA, human; The RalA of the GEF assay is called GST-tagged; also called Ras-related protein RalA; source: purified; cloned into pFAT2
On to B1, for which the binding result was “binds”.
